Experimental data from patent US20120100142A1 (VANDERBILT UNIVERSITY, published 2012).

B1: mAb 1F1 (antibody, V domains shown)
VH: EVQLVQSGGGVVQPRRSLRLSCAASGFTFSSYAMHWVRQAPGKGLEWVAVISYDGRNKYYADSVKGRFTVSRDNSKNTLYLQMNSLRAEDTSVYYCARELLMDYYDHIGYSPGPTWGQGTLVTVSS
VL: QPVLTQPPSASGSPGQRVTISCSGSSSNIGSYTVNWYQQLPGTAPKLLIYSLNQRPSGVPDRFSGSKSGTSASLAISGLQSEDEAVYYCAAWDDSLSAHVVFGGGTKLTVLG
B2: mAb 1I20 (antibody, V domains shown)
VH: EVQLVESGGGVVQPGGSLRLSCIASAFNLGIFGMHWVRQAPGKGLEWVAFIRYDGGKTFYADSVKGRFTISRDNSKNTLYLQMNSLRTEDTALYYCARDATADYYGPGSYPNWLDPWGQGTLVTVS
VL: DIRLTQSPATLSVSPGERATLSCRASHSVSRNLAWYQQKPGRAPRLLVYDTSSRATGIPARFSGSGSGTEFTLTISSLQSEDFAVYYCQQYNNWPRTFGQGTKVDIK
B3: mAb 2B12 (antibody, V domains shown)
VH: EVQLQESGPGLVKPSQTLSLTCNVSGGSITGDYKWSWIRQPPGKGLEWIGHIHSTGTTYYNPSLRSRITISMDTSKNNLSLRLTSVTAADTAVYYCASHTLTSGHYPRDFDFWGQGTLVTVSS
VL: SYVLTQPPSVSGTPGQRVIISCSGYSSNIGSNTVNWYQQFPGTAPRLLIYANNQRPPGVPDRFSGSKSGTSASLAISGLQSDDESDYYCAAWDDSLNGHWVFGGGTKLTVLG
B4: mAb 2D1 (antibody, V domains shown)
VH: EVQLVESGPALVKPTQTLTLTCSFSGFSLSTSGMSVSWIRQPPGKALEWLALIDWDDDTYYITYSSSLKTRLTISKDTSKSQVVLTMTNMDPVDTATYYCARTLRVSGDYVRDFDLWGRGTLVTVS
VL: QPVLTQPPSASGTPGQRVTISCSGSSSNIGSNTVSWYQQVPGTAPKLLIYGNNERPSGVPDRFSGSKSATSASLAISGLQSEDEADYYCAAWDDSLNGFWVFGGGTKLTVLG
B5: mAb 4D20 (antibody, V domains shown)
VH: EVQLVESGPVLVKPTETLTVTCTVSGFSVDNDRMGVSWIRQPPGKALEWLAHIFSNDEKSYSTSLRSRLTISKDTSKRQVVLSMTDMDPVDTATYYCARAPSEYAAMDVWGQGTMVTVS
VL: SYVLTQPPSVSVAPGETATVTCGGNNIGSKSVHWYQQKPGQAPVVVIYYDGDRPSGIPERFSGSNSGDTATLTISRVEAGDEADYYCLVWDYTSVHYVFGTGTKVTVLG

target: T1, 1918 HA displayed on 1918 virus-like particles, reconstituted 1918 virus or transfected cells (influenza A/South Carolina/1/1918 …, UniProt Q9WFX3 18-566); assay: cell-based or functional assay
T1 sequence (Q9WFX3 18-566): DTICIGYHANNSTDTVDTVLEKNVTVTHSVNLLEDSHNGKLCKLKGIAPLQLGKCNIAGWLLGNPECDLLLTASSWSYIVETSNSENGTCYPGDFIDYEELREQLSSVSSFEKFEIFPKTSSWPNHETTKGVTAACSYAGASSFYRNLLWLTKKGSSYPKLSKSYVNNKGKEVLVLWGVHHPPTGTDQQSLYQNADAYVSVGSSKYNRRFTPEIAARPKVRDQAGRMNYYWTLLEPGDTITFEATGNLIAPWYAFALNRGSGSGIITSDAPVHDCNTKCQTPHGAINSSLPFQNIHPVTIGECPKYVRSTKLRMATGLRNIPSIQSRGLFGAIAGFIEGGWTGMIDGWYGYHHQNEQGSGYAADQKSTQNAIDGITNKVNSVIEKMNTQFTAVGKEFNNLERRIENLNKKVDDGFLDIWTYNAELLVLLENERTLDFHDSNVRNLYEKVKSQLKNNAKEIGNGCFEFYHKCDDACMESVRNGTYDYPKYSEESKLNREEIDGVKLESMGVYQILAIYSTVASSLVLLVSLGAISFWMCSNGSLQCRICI

Row | Binder | HAI, specific activity of indicated mAb [µg/mL]
1 | B1 | 0.04
2 | B2 | 0.28
3 | B3 | 0.32
4 | B4 | 0.025
5 | B5 | 0.04

target: Recombinant A/South Carolina/1/1918 virus HA (influenza A/South Carolina/1/1918 …, UniProt Q9WFX3 18-520); assay: not given
Sequence (Q9WFX3 18-520 limits assumed): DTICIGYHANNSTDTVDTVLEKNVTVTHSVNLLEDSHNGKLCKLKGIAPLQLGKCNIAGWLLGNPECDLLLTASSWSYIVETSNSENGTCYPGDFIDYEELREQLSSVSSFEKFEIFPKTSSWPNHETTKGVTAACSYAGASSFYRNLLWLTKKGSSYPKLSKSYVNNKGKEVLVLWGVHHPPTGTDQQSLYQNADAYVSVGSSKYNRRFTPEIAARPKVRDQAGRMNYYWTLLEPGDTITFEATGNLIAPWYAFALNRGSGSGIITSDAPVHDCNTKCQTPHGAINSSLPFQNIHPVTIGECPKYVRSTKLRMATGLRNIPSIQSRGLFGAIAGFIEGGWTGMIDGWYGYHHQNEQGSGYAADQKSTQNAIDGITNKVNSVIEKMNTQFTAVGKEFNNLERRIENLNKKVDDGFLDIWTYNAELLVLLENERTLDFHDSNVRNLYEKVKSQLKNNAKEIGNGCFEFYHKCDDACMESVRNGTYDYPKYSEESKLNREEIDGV

Row | Binder | Kd [nM] | koff [s⁻¹] | kon [M⁻¹ s⁻¹]
6 | B1 | 5.4 | 0.00017 | 31000
7 | B2 | 0.048 | 1.4e-05 | 290000
8 | B3 | 6.2 | 0.00012 | 18000
9 | B4 | 0.25 | 1e-05 | 39000
10 | B5 | 0.14 | 1e-05 | 170000

target: T1, 1918 HA displayed on 1918 virus-like …; assay: cell-based or functional assay; remark: another data set of the same source

Row | Binder | Specific HAI activity [µg/mL]
11 | B1 | 0.08
12 | B2 | 0.16
13 | B3 | 0.31
14 | B4 | 0.01
15 | B5 | 0.04

target: T1, 1918 HA displayed on 1918 virus-like …; assay: not given

Row | Binder | EC50 (read off the curve) [mg/L]
16 | B3 | ~0.02
